Target: wild-type full-length human ADAMTS13 (human) (UniProt Q76LX8)

B1: wild-type full-length human ADAMTS13 (enzyme)
chain: AAGGILHLELLVAVGPDVFQAHQEDTERYVLTNLNIGAELLRDPSLGAQFRVHLVKMVILTEPEGAPNITANLTSSLLSVCGWSQTINPEDDTDPGHADLVLYITRFDLELPDGNRQVRGVTQLGGACSPTWSCLITEDTGFDLGVTIAHEIGHSFGLEHDGAPGSGCGPSGHVMASDGAAPRAGLAWSPCSRRQLLSLLSAGRARCVWDPPRPQPGSAGHPPDAQPGLYYSANEQCRVAFGPKAVACTFAREHLDMCQALSCHTDPLDQSSCSRLLVPLLDGTECGVEKWCSKGRCRSLVELTPIAAVHGRWSSWGPRSPCSRSCGGGVVTRRRQCNNPRPAFGGRACVGADLQAEMCNTQACEKTQLEFMSQQCARTDGQPLRSSPGGASFYHWGAAVPHSQGDALCRHMCRAIGESFIMKRGDSFLDGTRCMPSGPREDGTLSLCVSGSCRTFGCDGRMDSQQVWDRCQVCGGDNSTCSPRKGSFTAGRAREYVTFLTVTPNLTSVYIANHRPLFTHLAVRIGGRYVVAGKMSISPNTTYPSLLEDGRVEYRVALTEDRLPRLEEIRIWGPLQEDADIQVYRRYGEEYGNLTRPDITFTYFQPKPRQAWVWAAVRGPCSVSCGAGLRWVNYSCLDQARKELVETVQCQGSQQPPAWPEACVLEPCPPYWAVGDFGPCSASCGGGLRERPVRCVEAQGSLLKTLPPARCRAGAQQPAVALETCNPQPCPARWEVSEPSSCTSAGGAGLALENETCVPGADGLEAPVTEGPGSVDEKLPAPEPCVGMSCPPGWGHLDATSAGEKAPSPWGSIRTGAQAAHVWTPAAGSCSVSCGRGLMELRFLCMDSALRVPVQEELCGLASKPGSRREVCQAVPCPARWQYKLAACSVSCGRGVVRRILYCARAHGEDDGEEILLDTQCQGLPRPEPQEACSLEPCPPRWKVMSLGPCSASCGLGTARRSVACVQLDQGQDVEVDEAACAALVRPEASVPCLIADCTYRWHVGTWMECSVSCGDGIQRRRDTCLGPQAQAPVPADFCQHLPKPVTVRGCWAGPCVGQGTPSLVPHEEAAAPGRTTATPAGASLEWSQARGLLFSPAPQPRRLLPGPQENSVQSSACGRQHLEPTGTIDMRGPGQADCAVAIGRPLGEVVTLRVLESSLNCSAGDMLLLWGRLTWRKMCRKLLDMTFSSKTNTLVVRQRCGRPGGGVLLRYGSQLAPETFYRECDMQLFGPWGEIVSPSLSPATSNAGGCRLFINVAPHARIAIHALATNMGAGTEGANASYILIRDTHSLRTTAFHGQQVLYWESESSQAEMEFSEGFLKAQASLRGQYWTLQSWVPEMQDPQSWKGKEGT
  percent enhancement by antibody 17G2 of catalytic efficiency (kcat/Km) of VWF96 proteolysis; intramolecular Spacer-CUB interaction within full-length ADAMTS13: 188%

Source: article PMC8051872
